Laboratory results as given in publication PMC4334965, “Molecular Bases of Catalysis and ADP-Ribose Preference of Human Mn^2+-Dependent ADP-Ribose/CDP-Alcohol Diphosphatase and Conversion by Mutagenesis to a Preferential Cyclic ADP-Ribose Phosphohydrolase” (PLoS ONE, 2015).

Key:
Assay type in all cases: biochemical, Homo sapiens
Conditions in all cases: 5 mM MnCl2, pH 7.5, 37°C
[1] = substrate: C[N+](C)(C)CCOP(=O)(O)OP(=O)([O-])OC[C@H]1O[C@@H](n2ccc(N)nc2=O)[C@H](O)[C@@H]1O; test: colorimetric Pi assay coupled to alkaline phosphatase, saturation kinetics
Text: (§1) colorimetric Pi assay coupled to alkaline phosphatase, saturation kinetics on human ADPRibase-Mn

[2] = substrate: N=c1c2ncn3c2ncn1[C@@H]1O[C@H](COP(=O)(O)OP(=O)(O)OC[C@H]2O[C@@H]3[C@H](O)[C@@H]2O)[C@@H](O)[C@H]1O; test: HPLC of N1-(5-phosphoribosyl)-AMP formed, saturation kinetics
Text: HPLC of N1-(5-phosphoribosyl)-AMP formed, saturation kinetics on human ADPRibase-Mn

[3] = substrate: Nc1ncnc2c1ncn2[C@@H]1O[C@H](CO)[C@H]2OP(=O)(O)O[C@H]21; test: colorimetric Pi assay coupled to alkaline phosphatase, saturation kinetics
Text: as §1

| Protein | Km [1] [µM] | kcat [1] [s⁻¹] | kcat/Km [1] [M⁻¹ s⁻¹] | Km [2] [µM] | kcat [2] [s⁻¹] | kcat/Km [2] [M⁻¹ s⁻¹] | Km [3] [µM] | kcat [3] [s⁻¹] | kcat/Km [3] [M⁻¹ s⁻¹] |
| --- | --- | --- | --- | --- | --- | --- | --- | --- | --- |
| human ADPRibase-Mn (Homo sapiens; H111A) (protein, full length, 342 aa; expressed as GST fusion (pGEX-6P-3), GST cut off with PreScission protease, 11-aa N-terminal extension …) MDDKPNPEALSDSSERLFSFGVIADVQFADLEDGFNFQGTRRRYYRHSLLHLQGAIEDWNNESSMPCCVLQLGDIIDGYNAQYNASKKSLELVMDMFKRLKVPVHHTWGNAEFYNFSREYLTHSKLNTKFLEDQIVHHPETMPSEDYYAYHFVPFPKFRFILLDAYDLSVLGVDQSSPKYEQCMKILREHNPNTELNSPQGLSEPQFVQFNGGFSQEQLNWLNEVLTFSDTNQEKVVIVSHLPIYPDASDNVCLAWNYRDALAVIWSHECVVCFFAGHTHDGGYSEDPFGVYHVNLEGVIETAPDSQAFGTVHVYPDKMMLKGRGRVPDRIMNYKKERAFHC | 7500 ± 700 | 2.2 ± 0.2 | 300 ± 30 | – | – | – | – | – | – |
| human ADPRibase-Mn (Homo sapiens; F210A) (protein, full length, 342 aa; expressed as GST fusion (pGEX-6P-3), GST cut off with PreScission protease, 11-aa N-terminal extension …) MDDKPNPEALSDSSERLFSFGVIADVQFADLEDGFNFQGTRRRYYRHSLLHLQGAIEDWNNESSMPCCVLQLGDIIDGYNAQYNASKKSLELVMDMFKRLKVPVHHTWGNHEFYNFSREYLTHSKLNTKFLEDQIVHHPETMPSEDYYAYHFVPFPKFRFILLDAYDLSVLGVDQSSPKYEQCMKILREHNPNTELNSPQGLSEPQFVQANGGFSQEQLNWLNEVLTFSDTNQEKVVIVSHLPIYPDASDNVCLAWNYRDALAVIWSHECVVCFFAGHTHDGGYSEDPFGVYHVNLEGVIETAPDSQAFGTVHVYPDKMMLKGRGRVPDRIMNYKKERAFHC | 11000 ± 2600 | 50 ± 12 | 4000 ± 100 | – | – | – | – | – | – |
| human ADPRibase-Mn (Homo sapiens; C253A) (protein, full length, 342 aa; expressed as GST fusion (pGEX-6P-3), GST cut off with PreScission protease, 11-aa N-terminal extension …) MDDKPNPEALSDSSERLFSFGVIADVQFADLEDGFNFQGTRRRYYRHSLLHLQGAIEDWNNESSMPCCVLQLGDIIDGYNAQYNASKKSLELVMDMFKRLKVPVHHTWGNHEFYNFSREYLTHSKLNTKFLEDQIVHHPETMPSEDYYAYHFVPFPKFRFILLDAYDLSVLGVDQSSPKYEQCMKILREHNPNTELNSPQGLSEPQFVQFNGGFSQEQLNWLNEVLTFSDTNQEKVVIVSHLPIYPDASDNVALAWNYRDALAVIWSHECVVCFFAGHTHDGGYSEDPFGVYHVNLEGVIETAPDSQAFGTVHVYPDKMMLKGRGRVPDRIMNYKKERAFHC | – | – | – | 200 ± 40 | 8.9 ± 0.8 | 44000 ± 9000 | – | – | – |
| human ADPRibase-Mn (Homo sapiens; C253A/F37A/L196F) (protein, full length, 342 aa; expressed as GST fusion (pGEX-6P-3), GST cut off with PreScission protease, 11-aa N-terminal extension …) MDDKPNPEALSDSSERLFSFGVIADVQFADLEDGFNAQGTRRRYYRHSLLHLQGAIEDWNNESSMPCCVLQLGDIIDGYNAQYNASKKSLELVMDMFKRLKVPVHHTWGNHEFYNFSREYLTHSKLNTKFLEDQIVHHPETMPSEDYYAYHFVPFPKFRFILLDAYDLSVLGVDQSSPKYEQCMKILREHNPNTEFNSPQGLSEPQFVQFNGGFSQEQLNWLNEVLTFSDTNQEKVVIVSHLPIYPDASDNVALAWNYRDALAVIWSHECVVCFFAGHTHDGGYSEDPFGVYHVNLEGVIETAPDSQAFGTVHVYPDKMMLKGRGRVPDRIMNYKKERAFHC | – | – | – | 460 ± 120 | 16 ± 3 | 35500 ± 4300 | – | – | – |
| human ADPRibase-Mn (Homo sapiens) (protein, full length, 342 aa; expressed as GST fusion (pGEX-6P-3), GST cut off with PreScission protease, 11-aa N-terminal extension …) MDDKPNPEALSDSSERLFSFGVIADVQFADLEDGFNFQGTRRRYYRHSLLHLQGAIEDWNNESSMPCCVLQLGDIIDGYNAQYNASKKSLELVMDMFKRLKVPVHHTWGNHEFYNFSREYLTHSKLNTKFLEDQIVHHPETMPSEDYYAYHFVPFPKFRFILLDAYDLSVLGVDQSSPKYEQCMKILREHNPNTELNSPQGLSEPQFVQFNGGFSQEQLNWLNEVLTFSDTNQEKVVIVSHLPIYPDASDNVCLAWNYRDALAVIWSHECVVCFFAGHTHDGGYSEDPFGVYHVNLEGVIETAPDSQAFGTVHVYPDKMMLKGRGRVPDRIMNYKKERAFHC | 350 ± 60 | 50 ± 4 | 150000 ± 30000 | 780 ± 200 | 3.2 ± 0.2 | 4000 ± 1000 | 2400 ± 300 | 60 ± 13 | 25000 ± 6000 |
| human ADPRibase-Mn (Homo sapiens; Q27H) (protein, full length, 342 aa; expressed as GST fusion (pGEX-6P-3), GST cut off with PreScission protease, 11-aa N-terminal extension …) MDDKPNPEALSDSSERLFSFGVIADVHFADLEDGFNFQGTRRRYYRHSLLHLQGAIEDWNNESSMPCCVLQLGDIIDGYNAQYNASKKSLELVMDMFKRLKVPVHHTWGNHEFYNFSREYLTHSKLNTKFLEDQIVHHPETMPSEDYYAYHFVPFPKFRFILLDAYDLSVLGVDQSSPKYEQCMKILREHNPNTELNSPQGLSEPQFVQFNGGFSQEQLNWLNEVLTFSDTNQEKVVIVSHLPIYPDASDNVCLAWNYRDALAVIWSHECVVCFFAGHTHDGGYSEDPFGVYHVNLEGVIETAPDSQAFGTVHVYPDKMMLKGRGRVPDRIMNYKKERAFHC | 2700 ± 200 | 39 ± 12 | 14000 ± 3000 | – | – | – | – | – | – |
